Here are results for 18 molecules from US20260242478A1 (published 2026).

First the molecules themselves.
B1: Phage-3780 (peptide)
peptide: HMPLCIPVWMCAGF
modifications: not fully specified (residue 3); cysteine pairing not given here; also: displayed on phage as fusion to pIII, junction not given here
B2: Phage-3767 (peptide, not shown: large carriers)
peptide: VVRVCEPSWMCAGF
modifications: cysteine pairing not given here; also: displayed on phage as pIII fusion
notes: Clonal phage of the peptide-180 library, tested as crude phage supernatant
B3: Phage-3770 (peptide, not shown: large carriers)
peptide: TTPMCVPAWMCSGM
notes: as for B2
B4: Phage-3763 (peptide, not shown: large carriers)
peptide: DQRECIPHWMCAGF
modifications: cysteine pairing not given here; also: displayed on phage as pIII fusion
notes: as for B2
B5: Phage-3765 (peptide, not shown: large carriers)
peptide: MVIECRPEWMCVGF
notes: as for B2
B6: Phage-3766 (peptide, not shown: large carriers)
peptide: LYGVCVPEWMCHGF
notes: as for B2
B7: Phage-3771 (peptide, not shown: large carriers)
peptide: GNIWCEPAWMCVGF
notes: as for B2
B8: Phage-3764 (peptide, not shown: large carriers)
peptide: ENRMCIPEWMCQAS
notes: as for B2
B9: Phage-3769 (peptide, not shown: large carriers)
peptide: GSPFCVPLWMCEGF
notes: as for B2
B10: Phage-3768 (peptide, not shown: large carriers)
peptide: SEPVCTPMWMCTGI
notes: as for B2

Where no end group is shown, it is not given here.

The first experiment has as its target T1, PSMA Fab (006 PSMA Fab).
T1 construct: also called Anti-PSMA Fab; anti-PSMA Fab
The experiment is described as follows: phage ELISA; biotinylated PSMA Fab on neutravidin plate, clonal phage supernatant, anti-M13 HRP detection. (In general: ELISA stands for enzyme-linked immunosorbent assay.)
Description: (§1) Clonal phage were harvested as crude supernatants and screened via standard ELISAs. […] Prior to the addition of clonal phage. wells were incubated with blocking buffer and PSMA antigen or blocking buffer alone. Without washing or aspirating, clonal phage supernatants were then added to the wells and incubated for a short time. Wells were then washed followed by detection of bound phage using a horse radish conjugated anti-M13 antibody.
Take VTTLCRPAWMCHGF [Phage-3778]: the “Phage binding ELISA signal, Anti-PSMA Fab” value came out at 1.33.
Consider PVQLCIPSWMCDGF [Phage-3776], for which the “Phage binding ELISA signal, Anti-PSMA Fab” value came out at 1.33.
On the same count and under the same terms, the value for VQLMCMPEWMCSGL [Phage-3775] was 1.33.
In the case of WEGFCVPTWMCDGF [Phage-3774], the “Phage binding ELISA signal, Anti-PSMA Fab” value was 1.33.
The same measure, in the same setting: next, EYQRCIPEWMCSGF [Phage-3779]: 1.33.
Same read-out and setting: next, VHRMCEPKWMCEGF [Phage-3773]: 1.33.
Consider GLRMCEPMWMCQGF (cysteine pairing not given here; also: displayed on phage as pIII fusion) [Phage-3772], for which the “Phage binding ELISA signal, Anti-PSMA Fab” value is 1.34.
For the molecule ISPICRPAWMCHGF [Phage-3777], the “Phage binding ELISA signal, Anti-PSMA Fab” value turned out to be 1.33.
Still for that read-out and setting: next, B1: 1.33.

In the next experiment the target is T1, PSMA Fab (006 PSMA Fab). The experiment in a line: phage ELISA; biotinylated PSMA Fab on neutravidin plate pre-incubated with PSMA antigen as competitor, anti-M13 HRP detection.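 Further: crude clonal phage supernatants tested, compared against control wells pre-incubated with blocking buffer only, without PSMA antigen.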
Description: as §1
On to VTTLCRPAWMCHGF [Phage-3778], for which the “Phage binding ELISA signal, Anti-PSMA Fab in presence of PSMA” value (shortened to “Phage binding ELISA signal … of PSMA”) was found to be 0.0881.
Still for that read-out and setting: next, PVQLCIPSWMCDGF [Phage-3776]: 0.0876.
The same measure, in the same setting: the value for VQLMCMPEWMCSGL [Phage-3775] was 0.0599; that for WEGFCVPTWMCDGF [Phage-3774] was 0.0864.
The same measure, in the same setting: the value for EYQRCIPEWMCSGF [Phage-3779] was 0.0735.
With VHRMCEPKWMCEGF [Phage-3773], the “Phage binding ELISA signal … of PSMA” value worked out at 0.0695.
Still for that read-out and setting: next, GLRMCEPMWMCQGF (cysteine pairing not given here; also: displayed on phage as pIII fusion) [Phage-3772]: 0.0749; ISPICRPAWMCHGF [Phage-3777]: 0.0873.
Take B1: the “Phage binding ELISA signal … of PSMA” value came out at 0.113.

The target of a further experiment is T2, PSMA Fab (006 PSMA Fab) (biotinylated (site not stated)).
T2 construct: also called Anti-PSMA Fab; anti-PSMA Fab
The experiment in a line: clonal phage ELISA on biotinylated PSMA Fab captured on neutravidin plate, blocking buffer alone; anti-M13 HRP detection.
For B2, the “Phage binding ELISA signal, Anti-PSMA Fab” value came out at 1.35.
The same measure, in the same setting: the value for B3 was 1.34.
As to B4, the “Phage binding ELISA signal, Anti-PSMA Fab” value is 1.36.
Still for that read-out and setting: the value for B5 was 1.35; that for B6 was 1.35.
For B7, the “Phage binding ELISA signal, Anti-PSMA Fab” value worked out at 1.34.
B8: the “Phage binding ELISA signal, Anti-PSMA Fab” value was determined as 1.36.
The same measure, in the same setting: next, B9: 1.35; B10: 1.35.
